This test concerns the target T1, His-Tev-AIMP3 (aminoacyl-tRNA synthetases-interacting multifunctional protein 3) (human, UniProt O43324 1-174).
T1 construct: also called AIMP3/p18; MSC p18; source: E. coli BL21 (DE3), pET28a, purified (Ni-HiTrap, desalting column); not shown: His6-Tev (6-his tag and Tobacco Etch Virus protease cutting site, aa1-22 of the construct), N-terminal, kept
T1 sequence (looked up): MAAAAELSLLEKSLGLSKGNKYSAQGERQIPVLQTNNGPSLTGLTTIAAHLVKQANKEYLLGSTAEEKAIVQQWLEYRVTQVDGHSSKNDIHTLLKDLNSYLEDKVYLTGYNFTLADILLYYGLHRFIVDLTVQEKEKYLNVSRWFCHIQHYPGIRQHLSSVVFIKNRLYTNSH
Briefly: HDX-MS; AIMP3 and LmnA mixed in 1:1 ratio, 40 uM stock, 20 mM Hepes, 150 mM NaCl, pH 7.5, diluted into D2O; 0.5-240 min at 0.4 °C; protease type XIII digestion; LC-ESI 14.5 T FT-ICR MS; free against complexed protein. Conditions: both partners purified.

B1: His-Strep-TrxA-LmnA (C-terminal part of Lamin A, 567-646) (domain or fragment, UniProt P02545 567-646, looked up)
chain: GSHCSSSGDPAEYNLRSRTVLCGTCGQPADKASASGSGAQVGGPISSGSSASSVTVTRSYRSVGGSGGGSFGDNLVTRSY
notes: C-terminal part of mature Lamin A, residues 567-646 by the methods (the results say aa567-647, 80 aa); ends in NLVTRSY (203-209 of the construct); also called LmnA C-terminus; LmnA (aa567-647); source: E. coli BL21 (DE3), pET28a, purified (as for AIMP3: Ni-HiTrap, desalting column); not shown: His, N-terminal, kept; Strep, N-terminal, kept; TrxA (thioredoxin), N-terminal, kept
For B1, the binding result is “binds”.

(Values after paper PMC5552228, “Mapping the contact surfaces in the Lamin A:AIMP3 complex by hydrogen/deuterium exchange FT-ICR mass spectrometry” (PLoS ONE, 2017).)
